The text below walks through data of publication PMC4385932, “A transgenic mouse model to inducibly target prosurvival Bcl2 proteins with selective BH3 peptides in vivo” (Cell Death & Disease, 2015).

By Kd is commonly meant the free concentration of one partner at which half of the binding sites on the other are occupied at equilibrium, for simple one-to-one binding. Low values mean tighter binding, high ones weaker binding.

The target of this test is T1, Bcl-xL (UniProt Q07817-1 1-233).
T1 construct: Bcl-xL, prosurvival Bcl-2 family protein
T1 sequence (Q07817 whole entry): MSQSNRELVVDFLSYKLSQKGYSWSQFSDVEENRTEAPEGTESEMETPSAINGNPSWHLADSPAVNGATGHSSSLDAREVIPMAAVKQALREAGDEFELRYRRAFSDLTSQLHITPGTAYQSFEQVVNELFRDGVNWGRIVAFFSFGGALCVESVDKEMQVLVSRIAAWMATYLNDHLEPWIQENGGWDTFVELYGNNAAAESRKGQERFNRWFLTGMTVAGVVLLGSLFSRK
Kind of test: SPR; no format or conditions told. (In general: In SPR one partner is held on a chip, and binding of the other changes the refractive index at the surface.)

B1: BimSBad^mut (BimSBad with the Bad BH3 residue F121 mutated to alanine) (ligand)
chain: MAKQPSDVSSECDREGRQLQPAERPPQLRPGAPTSLQTEPQASMRQAEPANLWAAQRYGRELRRMSDEAVDSFKKGVFLNNYQAAEDHPRMVILRLLRYIVRLVWRMH
modifications: N-terminal FLAG tag left out. Same conventional swap limits and species assumption as m1.
As to B1, the Kd came out at 8.5 nM.

B2: BimSBad (BimS BH3-only protein in which the native BH3 sequence is replaced by the BH3 domain of Bad) (ligand)
chain: MAKQPSDVSSECDREGRQLQPAERPPQLRPGAPTSLQTEPQASMRQAEPANLWAAQRYGRELRRMSDEFVDSFKKGVFLNNYQAAEDHPRMVILRLLRYIVRLVWRMH
modifications: N-terminal FLAG tag left out. BimS = BimEL lacking 42-131. Swap limits are only in Figure 1a; the conventional 26-mer exchange is used (Bim 141-166, which is BimS 51-76, replaced by Bad 103-128). The
As for B2, the equilibrium dissociation constant (Kd) was under 0.2 nM.
